One series has as its target T1, RHAU53 (Homo sapiens, UniProt Q9H2U1).
T1 construct: RHAU-specific motif containing 53 amino acids (RHAU53)
T1 sequence (Q9H2U1 53-105 limits assumed): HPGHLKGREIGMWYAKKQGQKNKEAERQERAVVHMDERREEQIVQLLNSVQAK
The conditions noted are these: It is known; cited from earlier work.

The target of series [1] is T2, DHX36 (RHAU), full-length (UniProt Q9H2U1 Q9H2U1:1-1008).
T2 sequence: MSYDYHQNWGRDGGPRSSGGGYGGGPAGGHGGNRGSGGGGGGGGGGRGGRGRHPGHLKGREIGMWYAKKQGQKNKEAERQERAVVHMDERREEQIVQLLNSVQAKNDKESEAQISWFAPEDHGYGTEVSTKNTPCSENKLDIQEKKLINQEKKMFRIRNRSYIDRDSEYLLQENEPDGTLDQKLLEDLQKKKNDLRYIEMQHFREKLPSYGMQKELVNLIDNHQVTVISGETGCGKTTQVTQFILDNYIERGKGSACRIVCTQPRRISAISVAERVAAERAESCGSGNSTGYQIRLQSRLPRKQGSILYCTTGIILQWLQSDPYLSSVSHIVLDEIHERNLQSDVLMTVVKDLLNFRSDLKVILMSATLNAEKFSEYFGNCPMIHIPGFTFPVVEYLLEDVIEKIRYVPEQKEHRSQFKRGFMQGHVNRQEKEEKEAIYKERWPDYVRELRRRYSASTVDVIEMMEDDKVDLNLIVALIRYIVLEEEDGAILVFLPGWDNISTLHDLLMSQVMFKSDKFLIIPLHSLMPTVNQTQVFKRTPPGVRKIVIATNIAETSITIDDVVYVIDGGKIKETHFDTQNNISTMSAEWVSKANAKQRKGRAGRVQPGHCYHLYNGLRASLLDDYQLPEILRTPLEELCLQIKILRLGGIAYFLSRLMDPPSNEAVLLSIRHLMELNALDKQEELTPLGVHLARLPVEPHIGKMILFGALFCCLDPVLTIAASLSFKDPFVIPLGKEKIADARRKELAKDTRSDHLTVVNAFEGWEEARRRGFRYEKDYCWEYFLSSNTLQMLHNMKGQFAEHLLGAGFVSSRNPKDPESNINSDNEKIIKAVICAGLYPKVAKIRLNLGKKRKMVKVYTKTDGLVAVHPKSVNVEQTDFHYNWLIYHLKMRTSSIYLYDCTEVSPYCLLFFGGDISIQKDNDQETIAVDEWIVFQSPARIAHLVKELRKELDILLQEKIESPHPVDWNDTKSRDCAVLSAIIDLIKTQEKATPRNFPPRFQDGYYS
Description: EMSA; strong binding, data not shown. To be noted: G4. (Mobility shift assays separate free from complexed probe on a gel.)

In series [2] the target is T2, DHX36 (RHAU), full-length. Description: MST; 25 mM Tris-HCl pH 7.5, 150 mM KCl, 1 mM MgCl2, 37 C. The conditions noted are these: label: 3'-FAM; G4. As for the experimental part: Before the reaction, FAM labeled G4-compound conjugate was heated at 75° C. for 5 minutes and cooled down on the ice for 10 minutes. DHX36 protein was serially diluted to 16 samples from the highest concentration of […]. FAM-labeled oligonucleotides (40 nM) were added to each sample and incubated in Tris-HCl buffer (25 mM Tris-HCl, pH 7.5, 150 mM KCl, and 1 mM MgCl₂) at 37° C. for 30 minutes. Binding affinity was carried out on capillary tubes using an MST machine. The curve fitting and Kd determination were obtained from software.
Full-length DHX36 protein was then used to further confirm the recognition of the present rG4-PROTAC to G4BP via MST binding assay. […] As described above, the affinity of A_dG4_FAM to RHAU53 was nearly 4.7 times higher (Kd=[…]) than that of FAM_rG4_A (FIG. 2B). The interaction between A_dG4_FAM and DHX36 protein quantified by MST (Kd=303±55; FIG. 2D) confirmed the result, indicating a relatively weaker interaction with DHX36.

Series [3] concerns the target T3, RHAU53 peptide (53-aa RHAU/DHX36 G4-binding fragment) (UniProt Q9H2U1 Q9H2U1:53-105).
T3 chain: T1 sequence (Q9H2U1 53-105 limits assumed)
In words: EMSA; 25 mM Tris-HCl pH 7.5, 150 mM KCl, 1 mM MgCl2, 37 C. To be noted: label: 3'-FAM. Here is the method:
All oligonucleotides were heated for 5 minutes at 75° C. and cooled down for 10 minutes on ice. Different concentrations of RHAU53 peptide (0-2 μM) and 5-carboxyfluorescein (FAM)-labeled oligonucleotides or G4-compound conjugate (30 nM) were mixed in the Tris-HCl buffer (25 mM Tris-HCl, pH 7.5, 150 mM KCl and 1 mM MgCl₂). The mixture was incubated at 37° C. for 30 minutes, and 5% glycerol was then added to each sample. Bound and unbound RNAs were separated on 10% native polyacrylamide gel in 0.5× Tris/Borate/EDTA (TBE) at 4° C., 150 V for 30 minutes. The gel was scanned by scanner at 500 V and quantified by software.
To evaluate the target recognition ability of the rG4-PROTACs, the binding assay of FAM_rG4_A to RHAU53 peptide was performed by EMSA. RHAU53 peptide, the truncated DHX36 fragment, is the most important core protein domain required for rG4-RHAU interaction.

{5Hexynyl} = hexynyl group used for click conjugation

The values that follow come from patent US20250170247A1, “CONJUGATES, AND USES THEREOF” (CITY UNIVERSITY OF HONG KONG, priority 2023, published 2025).

In general, Kd refers to the constant that tells how readily two partners part at equilibrium. Higher therefore signals lower affinity.

For “hTERC rG4: human telomerase RNA component rG4, 5′-GGGUUGCGGAGGGUGGGCCU-3′ (SEQ ID NO: 1), the warhead targeting G4BP (RNA, 5' {5Hexynyl}, backbone not given here; further chemistry not fully specified)”, the “affinity for RHAU53” value with RHAU53 was “nanomolar affinity”.
On to CGGGGCGGGUGGGGAGGGGU (ssRNA) [APP 3'UTR rG4], for which the binding result in series [1] is “binds”.
With GGGUUGCGGAGGGUGGGCCU (ssRNA, 5'-hexynyl clicked to azide-modified AHPC) [FAM_rG4_A (hTERC rG4 WT-AHPC conjugate)], the Kd came to 79.7 nM in series [2] and 67.4 nM in series [3].
